Assay results from article PMC6339873 (Frontiers in Microbiology, 2018).

Legend:
[1] = biological target: st_YfdX(YI), S. Typhi YfdX with Y100A and I137A (Salmonella enterica serovar Typhi); experiment: […]; pH 6.0; […] (pH 6.0), 200 mM NaCl, 1 mM DTT, […]
[2] = biological target: st_YfdX(YI), S. Typhi YfdX with Y100A and I137A (Salmonella enterica serovar Typhi); experiment: […]; pH 7.5; […] (pH 7.5), 200 mM NaCl, 1 mM DTT, […]
[3] = biological target: the molecule itself; experiment: SEC-MALS; pH 10.0 (kp_YfdX, Supplementary Figure S1)
[4] = biological target: the molecule itself; experiment: SEC-MALS; Superdex 75 Increase 10/300 GL; pH 6.0; st_YfdX proteins in 20 mM Bis-Tris-HCl (pH 6.0), 200 mM NaCl, 1 mM DTT, wild type at 10 and 30 mg/mL, mutants at 30 mg/mL; buffer and concentration of kp_YfdX not told
[5] = biological target: the molecule itself; experiment: […]; pH 7.5; […] (pH 7.5), 200 mM NaCl, 1 mM DTT, […]
[6] = biological target: the molecule itself; experiment: crystal structure; sitting-drop vapor diffusion at 18°C; crystal I and II at pH 4.6 (F222), crystal III at pH 5.0 (P222); crystals II and III from protein with 1 mM ZnCl2; the tetramer is seen in the crystal lattice

st_YfdX(YI), S. Typhi YfdX with Y100A and I137A (domain or fragment)
stoichiometry N [1]: 2 | stoichiometry N [2]: 2

B1: K. pneumoniae YfdX (kp_YfdX), recombinant (natural protein)
chain: ATDSATAAPAAAATTQVQKEAADVLQVAVQGANAMRDIQFARLALFHGQPDSAKKLTDDAAALLAADDASWAKFVKTDAKAKMIADRYVIINASIALSEDYVATPEKESAIQSANEKLAKGDQKGAIDTLRLAGIGVIENQYLMPLNQTRKAVAQSQELLKAGKYYEANLVLKGAEEGIVVDSEMLVAGN
notes: YfdX of Klebsiella pneumoniae; Cloned into pET21a; PDB 3DZA (cited) holds a crystal structure of the same protein
stoichiometry N [3]: 2 | stoichiometry N [4]: 4

B2: S. Typhi YfdX, residues 10-186 (st_YfdX), wild type (domain or fragment)
chain: MAATNMTDNVTLNNDKISGQAWQAMRDIGMSRFELFNGRTQKAEQLAAQAEKLLNDDSTDWNLYVKSDKKAPVEGDHYIRINSSITVAEDYLPAGQKNDAINKANQKMKEGDKKGTIEALKLAGVSVIENQELIPLQQTRKDVTTALSLMNEGKYYQAGLLLKSAQDGIVVDSQSVQLEHHHHHH
stoichiometry N [5]: 2 | stoichiometry N [6]: 4
